# Test results as given in doi:10.1101/2023.09.18.558353.
# Biological target: SARS-CoV-2 wild-type (WT) spike protein trimer (SARS-CoV-2) (UniProt P0DTC2)
# Assay: SPR
substance,measurement,value
LCB1 mini-binder protein (designed binder),Kd,1.22 nM
